In paper PMC6399320, “The SIAH2-NRF1 axis spatially regulates tumor microenvironment remodeling for tumor progression” (Nature Communications, 2019):

Target: T1, His-NRF1 (Nuclear Respiratory Factor 1), bacterially expressed (UniProt Q16656 1-503)
T1 construct: Nuclear Respiratory Factor 1 (NRF1), cDNA cloned into pET28a; Vector pET28a; source: Escherichia coli BL21, expressed and purified
T1 sequence (looked up): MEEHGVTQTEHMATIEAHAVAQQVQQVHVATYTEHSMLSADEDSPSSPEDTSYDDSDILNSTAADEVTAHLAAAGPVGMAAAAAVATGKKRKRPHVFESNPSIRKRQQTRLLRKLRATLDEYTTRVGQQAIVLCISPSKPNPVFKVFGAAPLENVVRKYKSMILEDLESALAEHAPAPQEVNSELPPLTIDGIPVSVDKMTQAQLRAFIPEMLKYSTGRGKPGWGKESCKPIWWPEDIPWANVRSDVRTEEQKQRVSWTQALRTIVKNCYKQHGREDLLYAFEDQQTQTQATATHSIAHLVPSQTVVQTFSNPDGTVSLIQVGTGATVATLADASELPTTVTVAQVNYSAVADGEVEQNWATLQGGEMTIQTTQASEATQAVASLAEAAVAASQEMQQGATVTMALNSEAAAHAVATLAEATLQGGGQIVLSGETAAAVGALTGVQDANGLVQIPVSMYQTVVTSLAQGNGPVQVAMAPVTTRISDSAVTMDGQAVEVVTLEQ
Test: pull-down; GST pull-down in vitro with bacterially expressed His-NRF1 and GST-SIAH2
Settings: both partners purified

B1: GST-SIAH2, bacterially expressed (enzyme, UniProt O43255 1-324, looked up)
chain: MSRPSSTGPSANKPCSKQPPPQPQHTPSPAAPPAAATISAAGPGSSAVPAAAAVISGPGGGGGAGPVSPQHHELTSLFECPVCFDYVLPPILQCQAGHLVCNQCRQKLSCCPTCRGALTPSIRNLAMEKVASAVLFPCKYATTGCSLTLHHTEKPEHEDICEYRPYSCPCPGASCKWQGSLEAVMSHLMHAHKSITTLQGEDIVFLATDINLPGAVDWVMMQSCFGHHFMLVLEKQEKYEGHQQFFAIVLLIGTRKQAENFAYRLELNGNRRRLTWEATPRSIHDGVAAAIMNSDCLVFDTAIAHLFADNGNLGINVTISTCCP
notes: E3 ligase SIAH2, cDNA cloned into pGEX-4T-1; Vector pGEX-4T-1; source: Escherichia coli BL21, expressed and purified
- binding result: binds
